From paper PMC4949953
pKd: −log10 of the molar value.

Target: computationally redesigned, water-soluble variant of the human μ-opioid receptor (MOR) (human) (UniProt P35372)
Experiment: MoS2 field effect transistor biosensor

pKd: 7.06
Substance: [D-Ala^2, N-MePhe^4, Gly-ol]-enkephalin (peptide)
